Reference: patent US20200181261A1 (Bayer, published 2020)

T1: human CEACAM1, extracellular (mature form), R&D Systems 2244-CM (human, UniProt P13688 35-428)
T1 construct: used biotinylated in some assays; also called TPP-1437; hC1
T1 sequence: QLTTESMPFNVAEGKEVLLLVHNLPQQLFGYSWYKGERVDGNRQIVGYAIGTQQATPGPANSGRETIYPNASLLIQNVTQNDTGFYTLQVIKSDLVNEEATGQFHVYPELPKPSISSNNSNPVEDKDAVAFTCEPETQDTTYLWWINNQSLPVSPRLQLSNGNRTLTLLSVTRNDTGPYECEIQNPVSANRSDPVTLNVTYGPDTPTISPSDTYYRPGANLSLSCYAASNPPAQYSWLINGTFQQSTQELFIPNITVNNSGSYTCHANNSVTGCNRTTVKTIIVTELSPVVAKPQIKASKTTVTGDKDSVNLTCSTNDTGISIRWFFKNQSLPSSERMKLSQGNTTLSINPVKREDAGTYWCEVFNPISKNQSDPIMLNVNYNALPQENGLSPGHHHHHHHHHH

T2: human CEACAM8, full-length, on transfected HeLa cells (human, UniProt P31997 35-320)
T2 construct: also called TPP-4190; HeLa human CEACAM8
T2 sequence: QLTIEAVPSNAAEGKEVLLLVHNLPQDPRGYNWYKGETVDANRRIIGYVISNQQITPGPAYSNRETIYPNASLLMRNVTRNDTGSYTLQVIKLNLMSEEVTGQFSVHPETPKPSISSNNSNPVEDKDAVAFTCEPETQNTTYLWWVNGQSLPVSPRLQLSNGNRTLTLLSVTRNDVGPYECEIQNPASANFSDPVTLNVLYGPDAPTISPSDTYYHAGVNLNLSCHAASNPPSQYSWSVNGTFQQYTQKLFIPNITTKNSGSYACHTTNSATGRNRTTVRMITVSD

T3: Human CEACAM6-Domain 1-His (expressed in E. coli), wild-type (human)
T3 construct: entry includes the His tag; also called hDOM1
T3 chain: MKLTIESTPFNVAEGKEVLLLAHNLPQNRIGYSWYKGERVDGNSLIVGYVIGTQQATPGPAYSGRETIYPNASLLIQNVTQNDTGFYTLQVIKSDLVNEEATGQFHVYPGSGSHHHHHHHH

T4: Macaca fascicularis CEACAM6-Domain 1-His (expressed in E. coli) (Macaca fascicularis)
T4 construct: entry includes the His tag; also called TPP-2453; Recombinant single domain 1 of Macaca fascicularis CEACAM6
T4 chain: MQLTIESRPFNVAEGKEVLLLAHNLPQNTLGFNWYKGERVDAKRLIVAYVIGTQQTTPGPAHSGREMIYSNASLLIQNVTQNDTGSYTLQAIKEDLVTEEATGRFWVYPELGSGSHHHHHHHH

T5: human CEACAM19, full-length, on transfected HeLa cells (human, UniProt Q7Z692 33-300)
T5 construct: also called TPP-4186; HeLa human CEACAM19
T5 sequence: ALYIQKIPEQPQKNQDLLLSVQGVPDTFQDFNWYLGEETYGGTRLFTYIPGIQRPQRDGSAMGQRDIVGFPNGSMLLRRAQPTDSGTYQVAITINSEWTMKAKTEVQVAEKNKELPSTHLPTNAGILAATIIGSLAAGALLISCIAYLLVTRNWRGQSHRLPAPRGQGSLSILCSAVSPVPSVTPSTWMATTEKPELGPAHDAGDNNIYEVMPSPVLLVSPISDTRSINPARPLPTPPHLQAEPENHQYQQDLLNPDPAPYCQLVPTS


Experiments:
[1] = target: T1, human CEACAM1, extracellular (mature …); assay: SPR, antibody captured, antigen as analyte
Procedure: (§1) Surface plasmon resonance (SPR) experiments for quantitative binding analyses were performed either using a Biacore T100, Biacore T200 or a Biacore 4000 instrument (GE Healthcare Biacore, Inc.) equipped with Series S Sensor Chips CM5 (GE Healthcare Biacore, Inc.). Binding assays were carried out at 25° C. with assay buffer HBS-EP+(10 mM HEPES pH 7.4, 150 mM NaCl, 3 mM EDTA, 0.05% Surfactant P20). Antibodies were captured with an anti-hIgG capture antibody covalently immobilized to the chip surface via amine coupling chemistry. Reagents for amine coupling (1-ethyl-3-(3-dimethylaminopropyl) carbodiimide hydrochloride (EDC), N-hydroxysuccinimide (NHS), ethanolamine-HCl pH 8.5) were used from the Amine Coupling Kit (GE Healthcare, product code BR-1000-50). Anti-hIgG, anti-mIgG capture antibodies and immobilization buffer (10 mM sodium acetate pH 5.0) were used from the Human Antibody Capture Kit (GE Healthcare, BR-1008-39) and the Mouse Antibody Capture Kit (GE Healthcare, BR-1008-38), respectively. The sensor chip surface was activated with a freshly prepared solution of 0.2 M EDC and 0.05 M NHS passed over the chip surface for 420 s at a flow rate of 10 μl/min, followed by an injection of anti-hIgG or anti-mIgG capture antibody (dissolved to 25 μg/ml in immobilization buffer) for 180 s at a flow rate of […]. Excess of activated groups were blocked with a 1 molar solution of ethanolamine injected at a flow rate of 10 μl/min for 420 s.
(§2) CEACAM antigens were used as analyte to determine KD values. Antibodies were captured for 20 s at a flow rate of 10 μl/min prior to each analyte injection.
Obtained sensorgrams were double-referenced, i.e. in-line reference cell correction followed by buffer sample subtraction.

[2] = target: T2, human CEACAM8, full-length, on …; assay: FACS, transfected HeLa cells
Procedure: (§3) For FACS experiments HeLa wild type cells were cultured in RPMI-1640, 10% FCS, while CEACAM-receptor transfected HeLa cells received in addition 0.5% Gentamycin (stock 10 mg/ml, Fa. PAA) and 200 μg/ml Hygromycin B (stock 50 mg/ml, Invitrogen). Cells were washed 3 times with PBS w/o Ca²⁺/Mg²⁺ and were detached from the culture plate non-enzymatically with EDTA dissociation buffer (Gibco). Cells were washed in cold FACS buffer (PBS w/o Ca²⁺/Mg²⁺ and heat-inactivated 3% FCS) and were counted using a countess machine (Invitrogen). 10⁵ cells per well were plated and incubated with the respective primary antibody (5 μg/ml) for 1 h at 4° C. on a plate shaker. […] After 2 times washing the cells were resuspended in 100 μl FACS buffer and were analysed on a FACS Canto II machine (Beckton Dickinson) or a FACS Array (Beckton Dickinson).
(§4) For EC₅₀ analysis, the primary antibodies were used at increasing concentrations in a range from 0.1 nM to 100 nM. Half maximal binding values (EC₅₀) were determined by plotting the median fluorescence intensity signal against the concentration (logarithmic scale). Curve fitting of data was performed using the Graph Pad prism analysis software.

[3] = target: T3, Human CEACAM6-Domain 1-His (expressed …); assay: SPR, antibody captured, antigen as analyte
Procedure: as §1, §2

[4] = target: T4, Macaca fascicularis CEACAM6-Domain …; assay: SPR, antibody captured, antigen as analyte
Procedure: as §1, §2

[5] = target: T5, human CEACAM19, full-length, on …; assay: FACS, transfected HeLa cells
Procedure: as §3, §4

binding result [1] | binding result [2] | Kd [3] | Kd [4] | binding result [5] | Binder
no binding (tested: 200 nM) | no binding (tested: 5 µg/ml) | 11 nM | 5.3 nM |  | TPP-2971 (antibody, mouse IgG1, V domains shown, murine hybridoma antibody, mouse IgG1; also called 792.15H12C9) VH: QVTLKESGPGILQPSQTLSLTCSFSGFSLSTYGIGVGWIRQPSGKDLEWLAHIWWNDNKYYNTALKSRLTISKDTSNNQVFLKIASVDTADTATYYCARISLPYFDYWGQGTTLTVSS VL: DIVMTQSQKFMSTSVGDRVSITCKASQNVGTAVAWYQQKPGQSPKLLIYSASNRYTGVPDRFTGSGSGTDFTLTISNMQSEDLADYFCQQYSSYPLTFGAGTKLELK
 | no binding (tested: 5 µg/ml) | 9 nM | 6.9 nM |  | TPP-3323 (antibody, human IgG2, kappa, V domains shown, human IgG2 chimera; also called TPP-3187X1-hIgG2; hIgG2 chimera of TPP-3187) VH: QVTLKESGPGILQPSQTLSLTCSFSGFSLTTYGIGVGWIRQPSGKGLEWLAHIWWNDNKYYNTALKSRLTISKDTSNNQVFLKIASVDTADTATYYCARISLPYFDYWGQGTTLTVSS VL: DIVMTQSQKFMSTSVGDRVSITCKASQNVGTAVAWYQQKPGQSPKLLIYSASNRYTGVPDRFTGSGSGTDFTLTISNMQSEDLADYFCQQYNNYPLTFGAGTKLELKR
 | no binding (tested: 5 µg/ml) | 9.5 nM | 5.4 nM |  | TPP-3308 (antibody, human IgG2, kappa, V domains shown, human IgG2 chimera; also called TPP-2971X1-hIgG2Kappa; hIgG2 chimera of TPP-2971) VH: QVTLKESGPGILQPSQTLSLTCSFSGFSLSTYGIGVGWIRQPSGKDLEWLAHIWWNDNKYYNTALKSRLTISKDTSNNQVFLKIASVDTADTATYYCARISLPYFDYWGQGTTLTVSS VL: DIVMTQSQKFMSTSVGDRVSITCKASQNVGTAVAWYQQKPGQSPKLLIYSASNRYTGVPDRFTGSGSGTDFTLTISNMQSEDLADYFCQQYSSYPLTFGAGTKLELKR
 | no binding (tested: 5 µg/ml) | 12 nM | 6.9 nM |  | TPP-3187 (antibody, mouse IgG1, V domains shown, murine hybridoma antibody, mouse IgG1; also called 792.15C4F4) VH: QVTLKESGPGILQPSQTLSLTCSFSGFSLTTYGIGVGWIRQPSGKGLEWLAHIWWNDNKYYNTALKSRLTISKDTSNNQVFLKIASVDTADTATYYCARISLPYFDYWGQGTTLTVSS VL: DIVMTQSQKFMSTSVGDRVSITCKASQNVGTAVAWYQQKPGQSPKLLIYSASNRYTGVPDRFTGSGSGTDFTLTISNMQSEDLADYFCQQYNNYPLTFGAGTKLELK
 |  | 6.7 nM | 2.7 nM |  | TPP-3705 (antibody, human IgG2, kappa, V domains shown, also called 090E-M007-A09-Mat1-hIgG2-hIgG2Kappa) VH: EVQLVESGGGLVQPGGSLRLSCAASGFTFSLYQMHWVRQAPGKGLEWVSWISFSGGNTGYADSVKGRFTISRDNSKNTLYLQMNSLRAEDTAVYYCARATGYSSPWYLDPWGQGTLVTVSS VL: DIQMTQSPSSLSASVGDRVTITCQASHEIDNYLNWYQQKPGKAPKLLIYDAYWLKTGVPSRFSGSGSGTDFTLTISSLQPEDIATYYCQGYDDLSVTFGGGTKVDIKR
 | no binding (tested: 5 µg/ml) | 6.4 nM | 2.4 nM | no binding (tested: 5 µg/ml) | TPP-3707 (antibody, human IgG2, kappa, V domains shown, also called 090E-M007-A09-Mat2-hIgG2-hIgG2Kappa) VH: EVQLVESGGGLVQPGGSLRLSCAASGFTFSLYQMHWVRQAPGKGLEWVSWISFSGGNTGYADSVKGRFTISRDNSKNTLYLQMNSLRAEDTAVYYCARATGYSSPWYLDPWGQGTLVTVSS VL: DIQMTQSPSSLSASVGDRVTITCQASHEIDNYLNWYQQKPGKAPKLLIYDAYWSKTGVPSRFSGSGSGTDFTLTISSLQPEDIATYYCQGYDDLSVTFGGGTKVDIKR
no binding (tested: 200 nM) | no binding (tested: 5 µg/ml) | 4.5 nM | 4.7 nM | no binding (tested: 5 µg/ml) | TPP-3821 (antibody, human IgG2, kappa, V domains shown, humanized from TPP-3187, human IgG2; also called 3187HU2-hIgG2Kappa) VH: QVTLRESGPALVKPTQTLTLTCTFSGFSLSTYGIGVGWIRQPPGKALEWLAHIWWNDNKYYSTSLKTRLTISKDTSKNQVVLTMTNMDPVDTATYYCARISLPYFDYWGQGTLVTVSS VL: DIQLTQSPSFLSASVGDRVTITCKASQNVGTAVAWYQQKPGKAPKLLIYSASNRYTGVPSRFSGSGSGTEFTLTISSLQPEDFATYYCQQYNNYPLTFGGGTKVEIKR
no binding (tested: 200 nM) | no binding (tested: 5 µg/ml) | 3.7 nM | 3.4 nM | no binding (tested: 5 µg/ml) | TPP-3310 (antibody, human IgG2, kappa, humanized from TPP-2971, human IgG2; also called TPP-2971HU1-hIgG2Kappa) heavy: QVTLRESGPALVKPTQTLTLTCTFSGFSLSTYGIGVGWIRQPPGKALEWLAHIWWNDNKYYSTSLKTRLTISKDTSKNQVVLTMTNMDPVDTATYYCARISLPYFDYWGQGTTLTVSSASTKGPSVFPLAPCSRSTSESTAALGCLVKDYFPEPVTVSWNSGALTSGVHTFPAVLQSSGLYSLSSVVTVPSSNFGTQTYTCNVDHKPSNTKVDKTVERKCCVECPPCPAPPVAGPSVFLFPPKPKDTLMISRTPEVTCVVVDVSHEDPEVQFNWYVDGVEVHNAKTKPREEQFNSTFRVVSVLTVVHQDWLNGKEYKCKVSNKGLPAPIEKTISKTKGQPREPQVYTLPPSREEMTKNQVSLTCLVKGFYPSDIAVEWESNGQPENNYKTTPPMLDSDGSFFLYSKLTVDKSRWQQGNVFSCSVMHEALHNHYTQKSLSLSPG light: DIQLTQSPSFLSASVGDRVTITCKASQNVGTAVAWYQQKPGKAPKLLIYSASNRYTGVPSRFSGSGSGTEFTLTISSLQPEDFATYYCQQYSSYPLTFGGGTKVEIKRTVAAPSVFIFPPSDEQLKSGTASVVCLLNNFYPREAKVQWKVDNALQSGNSQESVTEQDSKDSTYSLSSTLTLSKADYEKHKVYACEVTHQGLSSPVTKSFNRGEC
